Earlier results, collected in patent publication US8623606B2, “Screening method for GPCR ligands” (Max-Planck-Gesellschaft zur Forderung der wissenschaften …, priority 2006, dated 2014).
Read-outs that look alike come from different tables or passages of the source.

How the values were obtained:
CRF R1 = conditions: FIG. 2A legend
CRF1 receptor [1] = biological target: T1, CRF1 receptor (Homo sapiens, UniProt P34998)
T1 sequence (P34998 24-415): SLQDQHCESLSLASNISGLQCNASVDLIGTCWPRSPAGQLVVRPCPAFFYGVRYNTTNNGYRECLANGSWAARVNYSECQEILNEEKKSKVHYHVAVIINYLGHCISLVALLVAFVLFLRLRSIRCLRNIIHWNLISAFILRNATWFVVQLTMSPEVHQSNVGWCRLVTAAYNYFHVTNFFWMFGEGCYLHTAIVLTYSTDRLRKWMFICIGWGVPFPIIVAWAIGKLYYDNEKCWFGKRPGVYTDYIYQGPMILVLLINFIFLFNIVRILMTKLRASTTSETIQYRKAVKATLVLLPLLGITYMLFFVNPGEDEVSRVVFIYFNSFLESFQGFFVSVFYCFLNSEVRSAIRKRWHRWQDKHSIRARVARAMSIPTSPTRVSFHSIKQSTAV

CRF1 receptor [2] = biological target: T1, CRF1 receptor; remark: listed apart in the source

Substance | CRF R1 activation potency (testosterone production) (CRF R1) | influence on the J-domain signaling (CRF1 receptor [1]) | binding to the CRF1 receptor (in words) (CRF1 receptor [2]; FIG. 2B legend) | Kd (CRF1 receptor [2]; as reported in Yamada et al., read-out: binding constant to the N-terminal domain) [nM] | Kd (CRF1 receptor [2]; literature value, read-out: affinity of binding to the CRF1 receptor) [nM]
consensus peptide derived from the C-terminus of CRF R1 antagonists: consensus peptide derived from the C-terminus of CRF R1 antagonists (NRKLLDEV; listed as Homo sapiens) | Neither of the isolated domains is active alone |  |  |  | 
Ac-E*AEK*NRLXDII-CONH2 [12 amino acid analog of astressin] |  | devoid of any detectable influence | binds tightly | 5 | 5.5
Ucn1-19: N-terminal activation domain from the CRF R1 agonist rat urocortin (DDPPLSIDLTFHLLRTLLEIE; listed as Homo sapiens) | Neither of the isolated domains is active alone |  |  |  | 
